According to article PMC8016844:

Assays:
Grb2 (Homo sapiens) = Grb2 (Homo sapiens) (UniProt P62993); settings: cited from earlier work
[1] = target: isolated CSH3 domain of Grb2 (Grb2_(CSH3)); assay: MST; target protein labelled with Atto 488 NHS ester, 100 nM; unlabelled ligand serially diluted; Monolith NT.115; 25 °C; 20 mM HEPES pH 7.5, 150 mM NaCl, 0.5 mM TCEP, 0.005% Tween 20
[2] = target: Shp2 N-terminal SH2 domain (Shp2_(NSH2)) (UniProt Q06124); assay: as above

Substance | Kd [1] | also measured
Grb2 (from UniProt P62993) |  | Kd (Grb2 (Homo sapiens)): 0.8 µM
Shp2 PTP domain peptide TKCNNS322KPKK325SYIATQ | 173 µM | 
Shp2 PTP domain peptide VERGKS366KCVK369YWPDEY | 122 µM | 
Shp2 PTP domain peptide WPDHGV429PSDP432GGVLDF | 18.1 µM | 
isolated CSH3 domain of Grb2 (Grb2_(CSH3)) (domain or fragment) |  | Kd [2]: 207 µM
